The source of these data is PMC12583694, “RNF114 and RNF166 exemplify reader-writer E3 ligases that extend K11 polyubiquitin onto sites of MARUbylation” (The EMBO Journal, 2025).

B1: RNF114 (wild type, full-length) (enzyme, human, UniProt Q9Y508 1-228, looked up)
chain: MAAQQRDCGGAAQLAGPAAEADPLGRFTCPVCLEVYEKPVQVPCGHVFCSACLQECLKPKKPVCGVCRSALAPGVRAVELERQIESTETSCHGCRKNFFLSKIRSHVATCSKYQNYIMEGVKATIKDASLQPRNVPNRYTFPCPYCPEKNFDQEGLVEHCKLFHSTDTKSVVCPICASMPWGDPNYRSANFREHIQRRHRFSYDTFVDYDVDEEDMMNQVLQRSIIDQ
notes: RNF114, human, RING-type E3 ubiquitin ligase; synthesised DNA cloned into pOPIN-B (N-terminal His-3C fusion); The methods describe no cleavage of the His-3C tag; also called WT RNF114; source: E. coli Rosetta, purified (Cobalt resin, gel filtration)
B2: RNF114 F206E (enzyme, human, UniProt Q9Y508 1-228, looked up)
chain: B1 chain with F206E
notes: RNF114, human, with a mutation in the linker between Di19 and UIM (modelled contact with the Ub I36 patch); Made by site-directed mutagenesis of pOPINB-RNF114 WT; no tag cleavage described; source: E. coli Rosetta, purified (Cobalt resin, gel filtration)
B3: RNF114 R198E (enzyme, human, UniProt Q9Y508 1-228, looked up)
chain: B1 chain with R198E
notes: Made by site-directed mutagenesis of pOPINB-RNF114 WT; no tag cleavage described; source: E. coli Rosetta, purified (Cobalt resin, gel filtration)
B4: AF1521 macrodomain (natural protein, UniProt O28751 1-192, looked up)
chain: MEVLFEAKVGDITLKLAQGDITQYPAKAIVNAANKRLEHGGGVAYAIAKACAGDAGLYTEISKKAMREQFGRDYIDHGEVVVTPAMNLEERGIKYVFHTVGPICSGMWSEELKEKLYKAFLGPLEKAEEMGVESIAFPAVSAGIYGCDLEKVVETFLEAVKNFKGSAVKEVALVIYDRKSAEVALKVFERSL
notes: plasmid GST-AF1521 (gift from M. Nielsen); also called GST-AF1521; source: purified as previously reported (Kamata et al, 2019)
B5: RNF114 M-UBD construct (residues 137–228) (domain or fragment)
chain: not shown
notes: RNF114, human, residues 137-228 (RING domain and associated disordered regions removed); No tag cleavage described; also called tandem Di19-UIM module; source: E. coli Rosetta, purified (Cobalt resin, gel filtration)
B6: RNF114 ΔUIM^ext (domain or fragment, human, UniProt Q9Y508 1-200, looked up)
chain: MAAQQRDCGGAAQLAGPAAEADPLGRFTCPVCLEVYEKPVQVPCGHVFCSACLQECLKPKKPVCGVCRSALAPGVRAVELERQIESTETSCHGCRKNFFLSKIRSHVATCSKYQNYIMEGVKATIKDASLQPRNVPNRYTFPCPYCPEKNFDQEGLVEHCKLFHSTDTKSVVCPICASMPWGDPNYRSANFREHIQRRHR
notes: RNF114, human, truncated version that ends immediately after the Di19 domain at residue 200; No tag cleavage described; source: E. coli Rosetta, purified (Cobalt resin, gel filtration)
B7: RNF138 (enzyme, human, UniProt Q8WVD3 1-245, looked up)
chain: MAEDLSAATSYTEDDFYCPVCQEVLKTPVRTTACQHVFCRKCFLTAMRESGAHCPLCRGNVTRRERACPERALDLENIMRKFSGSCRCCAKQIKFYRMRHHYKSCKKYQDEYGVSSIIPNFQISQDSVGNSNRSETSTSDNTETYQENTSSSGHPTFKCPLCQESNFTRQRLLDHCNSNHLFQIVPVTCPICVSLPWGDPSQITRNFVSHLNQRHQFDYGEFVNLQLDEETQYQTAVEESFQVNI
notes: RNF138, human, RING-type E3 ubiquitin ligase; synthesised DNA cloned into pOPIN-S3C (N-terminal His-SUMO-3C fusion); No tag cleavage described; source: E. coli Rosetta, purified (Cobalt resin, gel filtration; buffers at pH 8.0)
B8: RNF166 (enzyme, human, UniProt Q96A37 1-237, looked up)
chain: MAMFRSLVASAQQRQPPAGPAGGDSGLEAQYTCPICLEVYHRPVAIGSCGHTFCGECLQPCLQVPSPLCPLCRLPFDPKKVDKATHVEKQLSSYKAPCRGCNKKVTLAKMRVHISSCLKVQEQMANCPKFVPVVPTSQPIPSNIPNRSTFACPYCGARNLDQQELVKHCVESHRSDPNRVVCPICSAMPWGDPSYKSANFLQHLLHRHKFSYDTFVDYSIDEEAAFQAALALSLSEN
notes: RNF166, human, RING-type E3 ubiquitin ligase; synthesised DNA cloned into pOPIN-B (N-terminal His-3C fusion); No tag cleavage described; source: E. coli Rosetta, purified (Cobalt resin, gel filtration)

Changes are numbered by the printed parent chain. Names may count otherwise.

In the first experiment the target is T1, Ub-Lys-TAMRA (UniProt P0CG47 1-76, Ub is isopeptide-linked to a TAMRA-labeled Lys-Gly dipeptide (at the Ub C-terminus)).
T1 construct: ubiquitin (the cut product of the polyubiquitin precursor); source: generated previously (Geurink et al, 2012)
As to the kind of experiment: fluorescence polarisation; TAMRA-labelled substrate fixed, unlabelled protein at a range of concentrations, mixed 1:1; 22 °C; 25 mM HEPES pH 7.4, 150 mM NaCl, 0.1 mg/mL BSA, 1 mM TCEP; 10 µL in 384-well plate; Kd by nonlinear regression of duplicate datasets (GraphPad Prism 10). The following applies: both partners purified.
As to B1, the Kd is ~20 µM. On to B2, for which the binding result is “binds”.

As for B3, the binding result is reported as “binds”.

On to B4, for which the binding result is “binds”. Still for that read-out and setting: for B5 the value was “binds”.

The next experiment addresses T2, Ub-ADPr-TAMRA (fluorescent ester-linked Ub-ADPr conjugate) (human, UniProt P0CG47 1-76, C-terminus ester-linked to ADP-ribose (OP-ADPr, compound 8) that carries TAMRA (CuAAC with TAMRA-azide)).
T2 construct: ubiquitin, human (pET17b-Ub), wild type; observed mass of Ub 8564.4 Da; also called MARUbe probe; source: Ub purified as previously reported (Warren et al, 2023); coupled to OP-ADPr with DTX2, purified (Resource S), clicked to TAMRA-azide, purified (size exclusion)
The description is as above. Conditions: both partners purified.
Take B6: the binding result was “binds”.

For B1, the Kd turned out to be 12.8 µM. Turning to B2, the binding result is on record as “binds”. Same read-out and setting: for B3 the value was “binds”; for B7, “binds”. Same read-out and setting: in the case of B4 it was “binds”. Still for that read-out and setting: in the case of B8 it was “binds”.
